# Measurements reported in patent publication US11820970B2, “High throughput protein-protein interaction screening in yeast liquid culture” (University of Washington, priority 2016, dated 2023).
# Experiments:
# Test in all cases: Batched (one-pot) yeast mating assay, barcode sequencing
# Assay type in all cases: cell-based
# Bcl2 = Bcl2 (Homo sapiens, UniProt P10415); settings: vs Bcl2
# Description: (§1) For a many-to-many (also see Example 6) batched mating assay, multiple haploid yeast strains of each mating type are combined in a fresh 3 mL YPD culture. The recombinant MATa yeast strains are added in equal concentrations for a total density of 100 cells/μL and the recombinant MATalpha yeast strains are added in equal concentrations for a total density of 600 cells/μL. After 6 hours of growth, hygromycin is added at 100 ng/μL and β-estradiol (PE) is added at 200 ng/μL. 20 hours after the initial culture inoculation, 1 mL of cells are pelleted. 2 μL of cells are removed from the pellet, lysed with 0.2% SDS, spun down to remove all cellular debris, and diluted in water. The lysate is then used as a template for a PCR with standard primers containing overhangs for next generation sequencing and the PCR product, expected to be 650 bases, is purified from a gel slice. Paired-end next generation sequencing is then performed. The frequency that a particular pair of barcodes is observed relative to the total number of reads provides a relative measure for the number of matings that were caused by the SAP pair associated with those two particular barcodes.
# (§2) LIBRARY MATING ASSAYS: For library mating assays in which each isogenic strain was constructed individually and the barcode associated with each synthetic adhesion protein was determined with Sanger sequencing, one or both of the isogenic haploid strains from a one-to-one mating were replaced with a library of strains, all of the same mating type, displaying unique barcoded synthetic adhesion proteins. Each haploid strain in the library is individually grown to saturation, evaluated for surface expression strength as described previously, and mixed in equal volumes. 2.5 μL, if a MATa library, or 5 μL, if a MATalpha library, were then added to a mating as before. Following a 17 hour incubation, 100 μL were added to 50 mL of YPD with […] hygromycin and 100 nM β-estradiol (many-to-many matings only). After growing to saturation, cells were harvested by centrifugation, and lysed by heating to 70° C. for 5 min in 200 mM LiOAc and 1% SDS. Cellular debris was removed and incubated at 37° C. for 4 hours with 0.05 mg/mL RNase A. An ethanol precipitation was then performed to purify and concentrate the genomic DNA. A primary qPCR is performed to amplify the barcode region with standard adaptors and the PCR product is used as a template for a secondary qPCR to attach an index barcode and standard Illumina adaptors. This fragment is gel extracted, quantified with a Qubit and analyzed on a MiSeq next generation sequencer.
# (§3) One-pot protein library characterization. A barcoding and recombination scheme was developed for the analysis of whole protein interaction networks in a single pot. Single MATa and MATα parent strain, yNGYSDa and yNGYSDα, were constructed and barcoded SAP cassettes were transformed into the strains. In addition to the knockout of Sag1 in both parent strains and complementary lysine and leucine markers, yNGYSDa contains a CRE recombinase expression cassette with an inducible promoter, pZ4. yNGYSDα constitutively expresses ZEV4, an activator of the pZ4 promoter with an estradiol binding domain for nuclear localization. SAP cassettes were assembled in one of two standardized vectors, pNGYSDa or pNGYSDα, for integration into the corresponding yeast parent strain. In addition to the surface expression cassette, each vector backbone contains a mating type specific florescent reporter cassette, a randomized ten-nucleotide barcode, a mating type specific primer binding site, and a lox recombination site. Upon mating, the addition of β-Estradiol (βE) induces CRE recombinase expression in diploid cells, consolidating the barcodes from each haploid chromosome so that next-generation sequencing can be used to count the frequency of interacting SAP pairs (FIG. 16A). […]
# BclW = molecular target: T1, BclW (Homo sapiens, UniProt Q92843); settings: vs BclW
# T1 sequence (Q92843 1-193): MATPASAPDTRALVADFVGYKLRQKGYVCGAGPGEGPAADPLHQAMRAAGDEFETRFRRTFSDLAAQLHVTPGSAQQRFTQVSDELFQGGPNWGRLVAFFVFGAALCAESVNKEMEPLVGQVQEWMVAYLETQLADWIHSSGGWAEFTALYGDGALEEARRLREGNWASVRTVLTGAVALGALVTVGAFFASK
# Description: as §1, §2, §3
# Bfl1 = molecular target: T2, Bfl1 (Homo sapiens, UniProt Q16548); settings: vs Bfl1
# T2 sequence (Q16548 1-175): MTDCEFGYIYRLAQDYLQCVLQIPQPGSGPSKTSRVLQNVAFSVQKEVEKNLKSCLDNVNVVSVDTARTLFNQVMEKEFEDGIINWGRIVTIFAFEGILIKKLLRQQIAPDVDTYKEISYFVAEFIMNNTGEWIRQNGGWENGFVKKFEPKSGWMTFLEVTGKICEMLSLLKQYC
# Description: as §1, §2, §3
# Sequence of Bcl2 (P10415 whole entry, species assumed): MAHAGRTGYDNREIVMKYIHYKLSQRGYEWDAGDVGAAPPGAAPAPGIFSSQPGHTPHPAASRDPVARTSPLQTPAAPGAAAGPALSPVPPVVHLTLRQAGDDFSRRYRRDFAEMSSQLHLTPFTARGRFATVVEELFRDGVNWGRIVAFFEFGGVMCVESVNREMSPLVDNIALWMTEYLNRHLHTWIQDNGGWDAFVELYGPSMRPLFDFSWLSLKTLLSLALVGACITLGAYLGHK
Substance,"binding in batched mating (interaction profile, in words) (Bcl2)","binding in batched mating (interaction profile, in words) (BclW)","binding in batched mating (interaction profile, in words) (Bfl1)"
Bim: natural BH3 domain peptide binder of Bcl2 family proteins,nonspecifically,nonspecifically,nonspecifically
Noxa: natural BH3 domain peptide binder of Bcl2 family proteins (PAELEVECATQLRRFGDKLNFRQKLL),–,–,high specificity
Puma: natural BH3 domain peptide binder of Bcl2 family proteins (EEQWAREIGAQLRRMADDLNAQYERR),nonspecifically,nonspecifically,nonspecifically
